From FireProtDB (doi:10.1021/bi0027783)
Several values for one entry are separate records, joined by “and”; a condition that tells them apart may be missing. Equal values may be shown once.

Details: Allium sativum, reversible: yes, whole UniProt chain shown; for denaturant m value / denaturant midpoint (higher = more stable) / unfolding free energy: GdnHCl
[1] = pH 5, Thermal, DSC, citrate phosphate 20 mM
[2] = pH 5.5, Thermal, DSC, citrate phosphate 20 mM
[3] = pH 5.8, Thermal, DSC, citrate phosphate 20 mM
[4] = pH 6, Thermal, DSC, citrate phosphate 20 mM
[5] = pH 7.5, 50.7 °C, Thermal, CD, PBS 20 mM
[6] = pH 7.5, 53.3 °C, Thermal, CD, PBS 20 mM
[7] = pH 7.5, 55.7 °C, Thermal, CD, PBS 20 mM
[8] = pH 7.5, 56.3 °C, Thermal, CD, PBS 20 mM
[9] = pH 7.5, 60.8 °C, Thermal, CD, PBS 20 mM
[10] = pH 7.5, 64.2 °C, Thermal, CD, PBS 20 mM
[11] = pH 7.5, 66.4 °C, Thermal, CD, PBS 20 mM

RNILMNGEGLYAGQSLDVEPYHFIMQEDCN [wild type]
Tm [1]: 75.5 °C
unfolding enthalpy (van 't Hoff) [1]: 132 kcal/mol
Tm [2]: 74.6 °C
unfolding enthalpy (van 't Hoff) [2]: 130 kcal/mol
Tm [3]: 73.9 °C
unfolding enthalpy (van 't Hoff) [3]: 128 kcal/mol
Tm [4]: 73.1 °C
unfolding enthalpy (van 't Hoff) [4]: 125 kcal/mol
Tm (pH 7, Thermal, DSC, PBS 20 mM): 70.9 °C
unfolding enthalpy (van 't Hoff) (pH 7, Thermal, DSC, PBS 20 mM): 118 kcal/mol
denaturant m value (pH 7.5, 10 °C, CD, PBS 20 mM): 2.61 kcal/mol/M
denaturant midpoint (higher = more stable) (pH 7.5, 10 °C, CD, PBS 20 mM): 4.9 M
unfolding free energy (pH 7.5, 10 °C, CD, PBS 20 mM): 12.8 kcal/mol
denaturant m value (pH 7.5, 15 °C, CD, PBS 20 mM): 2.23 kcal/mol/M
denaturant midpoint (higher = more stable) (pH 7.5, 15 °C, CD, PBS 20 mM): 5.84 M
unfolding free energy (pH 7.5, 15 °C, CD, PBS 20 mM): 13 kcal/mol
denaturant m value (pH 7.5, 20 °C, CD, PBS 20 mM): 2.25 kcal/mol/M
denaturant midpoint (higher = more stable) (pH 7.5, 20 °C, CD, PBS 20 mM): 5.84 M
unfolding free energy (pH 7.5, 20 °C, CD, PBS 20 mM): 13.1 kcal/mol
denaturant m value (pH 7.5, 25 °C, CD, PBS 20 mM): 2.3 kcal/mol/M
denaturant midpoint (higher = more stable) (pH 7.5, 25 °C, CD, PBS 20 mM): 5.6 M
unfolding free energy (pH 7.5, 25 °C, CD, PBS 20 mM): 12.9 kcal/mol
denaturant m value (pH 7.5, 30 °C, CD, PBS 20 mM): 2.64 kcal/mol/M
denaturant midpoint (higher = more stable) (pH 7.5, 30 °C, CD, PBS 20 mM): 4.62 M
unfolding free energy (pH 7.5, 30 °C, CD, PBS 20 mM): 12.2 kcal/mol
denaturant m value (pH 7.5, 35 °C, CD, PBS 20 mM): 3.21 kcal/mol/M
denaturant midpoint (higher = more stable) (pH 7.5, 35 °C, CD, PBS 20 mM): 3.4 M
unfolding free energy (pH 7.5, 35 °C, CD, PBS 20 mM): 10.9 kcal/mol
denaturant m value (pH 7.5, 40 °C, CD, PBS 20 mM): 4 kcal/mol/M
denaturant midpoint (higher = more stable) (pH 7.5, 40 °C, CD, PBS 20 mM): 2.41 M
unfolding free energy (pH 7.5, 40 °C, CD, PBS 20 mM): 9.65 kcal/mol
denaturant m value (pH 7.5, 45 °C, CD, PBS 20 mM): 3.89 kcal/mol/M
denaturant midpoint (higher = more stable) (pH 7.5, 45 °C, CD, PBS 20 mM): 1.99 M
unfolding free energy (pH 7.5, 45 °C, CD, PBS 20 mM): 7.74 kcal/mol
denaturant m value (pH 7.5, 50 °C, CD, PBS 20 mM): 3.83 kcal/mol/M
denaturant midpoint (higher = more stable) (pH 7.5, 50 °C, CD, PBS 20 mM): 1.5 M
unfolding free energy (pH 7.5, 50 °C, CD, PBS 20 mM): 5.75 kcal/mol
heat capacity change of unfolding [5]: 3.64 kcal/mol/K
unfolding enthalpy (van 't Hoff) [5]: 115 kcal/mol
heat capacity change of unfolding [6]: 3.59 kcal/mol/K
unfolding enthalpy (van 't Hoff) [6]: 118 kcal/mol
heat capacity change of unfolding [7]: 3.5 kcal/mol/K
unfolding enthalpy (van 't Hoff) [7]: 124 kcal/mol
heat capacity change of unfolding [8]: 3.4 kcal/mol/K
unfolding enthalpy (van 't Hoff) [8]: 136 kcal/mol
heat capacity change of unfolding [9]: 3.32 kcal/mol/K
unfolding enthalpy (van 't Hoff) [9]: 142 kcal/mol
heat capacity change of unfolding [10]: 3.25 kcal/mol/K
unfolding enthalpy (van 't Hoff) [10]: 153 kcal/mol
heat capacity change of unfolding [11]: 3.2 kcal/mol/K
unfolding enthalpy (van 't Hoff) [11]: 173 kcal/mol
unfolding enthalpy (calorimetric) (pH 7.5, Thermal, DSC, PBS 20 mM): 96.4 kcal/mol and 116 kcal/mol and 118 kcal/mol
Tm (pH 8, Thermal, DSC, PBS 20 mM): 69.2 °C
unfolding enthalpy (van 't Hoff) (pH 8, Thermal, DSC, PBS 20 mM): 113 kcal/mol
